What follows are binders tested against BSA (UniProt P02769) (assay: ELISA, BSA coated (control), E. coli supernatant, anti-VHH-HRP).
Sequence of BSA (P02769 25-607 limits assumed): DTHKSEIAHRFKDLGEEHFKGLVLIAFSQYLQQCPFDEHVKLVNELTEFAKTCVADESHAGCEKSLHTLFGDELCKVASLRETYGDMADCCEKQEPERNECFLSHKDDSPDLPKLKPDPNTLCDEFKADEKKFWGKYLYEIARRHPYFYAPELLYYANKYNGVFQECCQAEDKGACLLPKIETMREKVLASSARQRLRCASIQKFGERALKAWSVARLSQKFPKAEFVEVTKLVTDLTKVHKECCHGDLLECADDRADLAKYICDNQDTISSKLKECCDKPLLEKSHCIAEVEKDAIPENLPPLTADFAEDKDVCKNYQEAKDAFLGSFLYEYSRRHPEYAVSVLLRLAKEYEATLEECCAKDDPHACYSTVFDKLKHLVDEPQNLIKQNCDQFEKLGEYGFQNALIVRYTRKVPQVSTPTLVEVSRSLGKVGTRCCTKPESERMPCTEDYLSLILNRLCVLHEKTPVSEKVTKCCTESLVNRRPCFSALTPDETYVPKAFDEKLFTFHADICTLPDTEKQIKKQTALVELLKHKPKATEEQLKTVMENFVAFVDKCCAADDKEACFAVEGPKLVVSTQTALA

| Binder | OD Value Obtained after Binding to BSA [OD 450 nm] |
| --- | --- |
| B1-G3 (VHH) VHH: EVQVVESGGGLVQPGGSLRLSCVASMPSGISFSNRGMAWYRQAPGKQRELVAAIDSAGSTRYQDSVKGRFTISRDNAKNTVFLQMNSLKPEDTAVYYCNQPAFKAWGQGTQVTVSS | 0.067 |
| B4-D3 (VHH) VHH: QLQLVESGGGLVQPGGSLRLSCVASGASGISFSNRGMAWYRQAPGKQRELVAAIDSAGSPAYAGSVKGRFTISRDNAKNTVFLQMNSLKPEDTAVYYCNQPRFNLWGLGTQVTVSS | 0.059 |
| B2-A6 (VHH) VHH: QLQLVESGGGLVQAGGSLRLSCFVSGSTFSASLMGWYRQAPGKERELVAGISNIGNTVYADSAKGRFTISRDGAKNTVHLQMNALKPEDTAVYYCYATVPRAAWGQGTQVTVSS | 0.049 |
| B4-C11 (VHH) VHH: QVQLVESGGGLVQAGGSLRLSCAASGSTFSNVVAGWYRQAPGKQRELVAGISNIGDTRYADSVKGRFTISRDNAKKAVYLQMNSLKPEDTAVYYCYAKYWARDYWGQGTQVTVSS | 0.071 |
| B3-H7 (VHH) VHH: EVQVVESGGGLVQAGGSLRLSCAASGSTAINSVAGWYRQAPGKQRELVAGISNIGDTRYADSVKGRFTISRDNAKKTVYLQMNSLKSEDTAVYYCYAKYWARDYWGQGTQVTVSS | 0.056 |
| B1-H9 (VHH) VHH: EVQLVESGGDLVQAGGSLRLSCAASGSTFSSTIAGWYRQAPGKQRELVAGISNIGDTRYADSVKGRFTISRDNAKKTVYLQMNSLKPEDTAVYYCYAKYWARDYWGQGTQVTVSS | 0.058 |

Other lines, results leading:

| OD Value Obtained after Binding to BSA [OD 450 nm] | Binder |
| --- | --- |
| 0.071 | B3-C11 (VHH) VHH: EVQLVESGGGLVQAGGSLRLSCFVSGSTFSASLMGWYRQAPGKERELVAGISNIGNTVYADSAKGRFTISRDGAKNTVHLQMNALKPEDTAVYYCYATVPRAAWGQGTQVTVSS |
| 0.07 | B2-E2 (VHH) VHH: EVQLVESGGGLVQPGESLRLSCVASGFPSGFTFSDYQMYWYRQAPGKERELVAIISNDGLRKTYADSVKGRFTISRDNAKNTMFLQMNSLKPEDTAVYVCNVRRANRDDWGQGTQVTVSS |
| 0.065 | B1-G8 (VHH) VHH: QVQLVESGGGLVQTGDSLRLSCVAPGISFSNRGMAWYRQAPGKQRELVAAIDSAGSQRYAGSVKDRFTISRDNAKNTVFLQMNSLKPEDTAVYYCNQPRFNLWGQGTQVTVSS |
| 0.063 | B2-F10 (VHH) VHH: QVQLVESGGGLVQAGGSLRLSCGASGSAVSITLMAWYRQAPGKQRELVAGISNIGDTNYVDSVKDRFTISRINAKNAMYLQMNSLKPEDTAVYYCFAQDWGGHHYWGQGTQVTVSS |

Source: patent US20240425575A1
